Molecular target: Shiga toxin 2f (Stx2f) holotoxin (Escherichia coli)

B1: monoclonal antibody Stx2f-1 (antibody, V domains shown)
VH: QVQLQQSGPEVVRPGVSVKISCKGSGYTFTDYAIHWVKQSHAKSLEWIGFISTYNGNPNYNKEFKGKATVTVDKSSSTAYLELARLTSEDSAIYFCARDFYGSSSWFAYWGQGTLVTVSA
VL: DIVLTQTPASLAVSLGQRATISCRASESVDSYGDDFMHWYQQKPGQPPKLLIYRVSNLESGIPVRFSGSGSRTDFTLTINPVEADDDATYYCQQSNENPYTFGGGTKLEIK
B1 gave a Kd of 0.516 nM.
